Laboratory results taken from patent publication US20020104105A1 (MYRIAD GENETICS, published 2002).

Target: T1, ERK3, amino acids 1-316, bait fused to the Gal4 DNA binding domain (Saccharomyces cerevisiae, UniProt P04386 1-147; Q16659 1-316)
T1 construct: range 1-147;range 1-316; Bait cDNA made by PCR from brain cDNA; also called ERK3 protein kinase
Experiment: yeast two-hybrid
Text: The new construct was selected directly in the yeast J693 for its ability to drive tryptophane synthesis (genotype of this strain: Mat α, ade2, his3, leu2, trp1, URA3::GAL1-lacZ LYS2::GAL1-HIS3 gal4del gal80del cyhR2). In these yeast cells, the bait is produced as a C-terminal fusion protein with the DNA binding domain of the transcription factor Gal4 (amino acids 1 to 147). A total human brain (person) cDNA library cloned into the yeast expression vector pACT2 was purchased from Clontech (human brain […] cDNA, cat. # HL4004AH), transformed into the yeast strain J692 (genotype of this strain: Mat a, ade2, his3, leu2, trp1, URA3::GAL1-lacZ LYS2::GAL1-HIS3 gal4del ga80del cyhR2), and selected for the ability to drive leucine synthesis. In these yeast cells, each cDNA is expressed as a fusion protein with the transcription activation domain of the transcription factor Gal4 (amino acids 768 to 881) and a 9 amino acid hemagglutinin epitope tag. J693 cells (Mat α type) expressing the bait were then mated with J692 cells ([…]) expressing proteins from the brain library. The resulting diploid yeast cells expressing proteins interacting with the bait protein were selected for the ability to synthesize tryptophan, leucine, histidine, and β-galactosidase. […]

binding result: binds
B1: CDK9, amino acids 160-372, prey clone fused to the Gal4 activation domain (other, Saccharomyces cerevisiae;human, UniProt P04386 768-881, looked up, not shown: small tags and cut ends)
chain: ANFNQSGNIADSSLSFTFTNSSNGPNLITTQTNSQALSQPIASSNVHDNFMNNEITASKIDDGNNSKPLSPGWTDQTAYNAFGITTGMFNTTTMDDVYNYLFDDEDTPPNPKKEDGVLKLADFGLARAFSLAKNSQPNRYTNRVVTLWYRPPELLLGERDYGPPIDLWGAGCIMAEMWTRSPIMQGNTEQHQLALISQLCGSITPEVWPNVDNYELYEKLELVKGQKRKVKDRLKAYVRDPYALDLIDKLLVLDPAQRIDSDDALNHDFFWSDPMPSDLKGMLSTHLTSMFEYLAPPRRKGSQITQQSTNQSRNPATTNQTEFERVF
notes: Clone from the human brain cDNA library; also called PITARLE
